From patent US20240101645A1 (HENRY M JACKSON FOUNDATION FOR THE ADVANCEMENT OF MILITARY …, published 2024) come the findings set out here.

As usually defined, the Kd is the free concentration of one partner at which half of the binding sites on the other are occupied at equilibrium, for simple one-to-one binding. A lower Kd goes with tighter binding.

Substitutions are numbered along the chain they refer to. Where only a bound is given, the exact number is not on record here.

The labels stand for the following.
B1: COV_2037 (antibody, V domains shown)
VH: QVQLVQSGAEVKKPGASVKVSCKVSGYTLTELSMHWVRQAPGKGLEWMGGFDPEDAETIYAQKFQGRVTMTEDTSTDTAYMELSSLRSEDTAVYYCATAGAITGTPTNYSYYYGMDFWGQGTTVTVSS
VL: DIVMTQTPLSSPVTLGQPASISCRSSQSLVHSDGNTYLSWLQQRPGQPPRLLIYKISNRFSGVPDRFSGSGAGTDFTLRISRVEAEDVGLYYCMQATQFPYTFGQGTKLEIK
notes: human IgG1
B2: COV_3088 (antibody, V domains shown)
VH: EVQLVESGGGLVQPGGSLRLSCAASGFTFSSYDMHWVRQATGKGLEWVSAIGTAGDTYYPGSVKGRFTISRENAKNSLYLQMNSLRAGDTAVYYCARGSGWPPFFDYWGQGTLVTVSS
VL: SYELTQPPSVSVAPGKTARITCGGNNIGSKSVHWYQQKPGQAPVLVIYYDSDRPSGIPERFSGSNSGNTATLTISRVEAGDEADYYCQVWDSSSDHHWVFGGGTKLTVL
notes: human IgG1
B3: COV_2014 (antibody, V domains shown)
VH: QVQLVQSGAEVKKPGASVKVSCKVSGYTLTELSMHWVRQAPGKGLEWMGGFDPEDGETIYAQKFQGRVTMTEDTSTDTAYMELSSLRSEDTAVYYCATGKINYYDSSGYYGTFDYWGQGTLVTVSS
VL: AIQLTQSPSSLSASVGDRVTITCRASQGISSYLAWYQQKPGKAPKLLIYAASTLQSGVPSRFSGSGSGTDFTLTISSLQPEDFATYYCQQLNSYHLTFGQGTRLEIK
notes: human IgG1
B4: COV_2008 (antibody, V domains shown)
VH: QVRVVQSGAEVKNPGASVKVSCKVSGYTLTELSIHWVRQAPGNGLEWMGGFDPEDGETIYAQKFQGRVTMTEDTSTDTAYMELSSLRSDDTAVYYCATAGAITGTPRNFYYYYGMDVWGQGTTVTVSS
VL: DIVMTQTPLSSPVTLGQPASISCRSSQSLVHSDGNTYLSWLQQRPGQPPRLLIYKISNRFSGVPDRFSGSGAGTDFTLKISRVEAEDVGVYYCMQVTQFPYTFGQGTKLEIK
notes: human IgG1
B5: COV_2028 (antibody, V domains shown)
VH: QVQLQESGPGLVKPSGTLSLTCVVSGGSISSSNWWSWVRQPPGKGLEWIGEIYHSGSTNYNPSLKSRVTISVDKSKNQFSLRLTSVTAADTAVYYCARGWNYDYWGQGTLVTVSS
VL: QSALTQPASVSGSPGQSITIACTGTSSDVGSYNLVSWYQQHPGKAPKLMIYEVSKRPSGLSNRFSGSKSGNTASLTISGLQAEDEADYYCYSYAGSSTWVFGGGTKLTVL
notes: human IgG1
B6: COV_2172 (SEQ ID NO:872/877) (antibody, V domains shown)
VH: EVQLVESGGGVVQPGRSLRLSCAPSGFTFSTYAMHWVRQAPGKGLEWVAVISYDGSIKYYADSVKGRFTISRDNTMNTVFLQMNSLRAEDTAVYFCAKGGERWELFTSFDYWGQGTQVTVSS
VL: QSALTQPRSVSGSPGQSVTISCTGTSSDVGGYNYVSWYQQHPGKAPKLMIYDVSKRPSGVPDRFSGSKSGNTASLTISGLQAEDEADYYCCSYAGSYTFVFGGGTKLTVLG
B7: COV_2035 (antibody, V domains shown)
VH: QVQLVQSGAEVKKPGASVKVSCKVSGYTLPELSIHWVRQAPGKGLEWLGGFDPEDGKIIYAQKFQGRVTMTEDTSTDTAYMELSSLRSEDTAVYYCATSPAVVERGWFDPWGQGTLVTVSS
VL: QSALTQPPSASGSPGQSVTISCTGTSSDVGGYNYVSWYQQHPGKAPKLMIYEVSKRPSGVPDRFSGSKSGNMASLTVSGLQAEDEANYYCSSYAGSKRVFGGGTKLTVL
notes: human IgG1
B8: COV_1050 (antibody, V domains shown)
VH: QVQLVESGGGVVQPGRSLRLSCAASRFTFSSYAMHWVRQAPGKGLEWVAVISFDGSNKYYADSVKGRFTIFRDNSKNTLSLQMNSLRTEDTAMYYCASPAGYYESLWGQGTLVTVSS
VL: SYELTQPPSVSVSPGQTARVTCSGDALSKQYGFWYQQKPGQAPTLVIYKDTERPSGIPERFSGSGSGTTVTLTISGVQAEDEADYYCQSTDNSGRWVFGGGTKLTVLG
notes: human IgG1
B9: COV_2056 (SEQ ID NO:792/797) (antibody, V domains shown)
VH: EVQLVESGGGVVQPGRSLRLSCAASGFTFSIYGMHWVRQAPGKGLEWVALISYDGTNKYYADSVKGRFSISRDDSKNTLYLQMNSLRPEDTAVYYCAKVLMMGDSSGFSLGDAFDIWGQGTMVTVSS
VL: DIQMTQSPSSVSASVGDRVTITCRASQGISNWLAWYQQKPGKAPKLLIYAASSLQSGVPSRFSGSVSGTDFTLTISSLQPEDFATYYCQQANSFPLTFGGGTKVDIKR
B10: COV_2174 (antibody, V domains shown)
VH: EVQLAESGGGLVKPGGSLRLSCAASGFTFSDYYMSWIRQAPGKGLEWVSYISSSGSTIYYADSVKGRFTISRDNAKNSLYLQMNSLRAEDTAVYYCARDWSVVVVPAAPAVDVWGQGTTVTVSS
VL: B9 VL with V11L, W32Y, Y36F, L46S, R61K, V66G, A91Y, F94Y, D105E
notes: human IgG1
B11: COV_1149 (antibody, V domains shown)
VH: QVQLVESGGGVVQPGRSLRLSCAASGFTFSSYGMHWVRQAPGKGLEWVAVISYDGSNKYYADSVKGRFTISRDNSKNTLYLQMNSLRAEDTAVYYCAKTGGGYSYGLGNVWGQGTLVTVSS
VL: QSALTQPASVSGSPGQSITISCTGTSSDVGGYNYVSWYQQHPGKAPKLMIYDVSNRPSGVSNRFSGSKSGNTASLTISGLQAEDEADYYCSSYTSSSTLVVFGGGTKLTVLG
notes: human IgG1
B12: COV_1201 (antibody, V domains shown)
VH: QVQLVQSGAEVKKPGASMKVSCKASGYTFTGYYIHWVRQAPGQGLEWMGRINPNSGGTNYAQKFQGRVTMTRDTSISTAYMELSRLRSDDTAVYYCAREYYYVPYGMDVWGQGTTVTVSS
VL: QSALTQPASVSGSPGQSITISCTGTSSDVGGYNFVSWYQHHPGKAPKLMIYEVSNRPSGVSNRFSGSKSGNTASLTISGLQAEDEADYYCSSYTSSSTYVFGTGTKVTVL
notes: human IgG1
B13: COV_3077 (antibody, V domains shown)
VH: QVQLQESGPGLVKPSETLSLTCAVSGYSISSGYYWGWIRQPPGKGLEWIGSIYHSGSTYYNPSLKSRVTISVDTSKNQFSLKLSSVTAADTAVYYCARALYDAFDIWGQGTMVTVSS
VL: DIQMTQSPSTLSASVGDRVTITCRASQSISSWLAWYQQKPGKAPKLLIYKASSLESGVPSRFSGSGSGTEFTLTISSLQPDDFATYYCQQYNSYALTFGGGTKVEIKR
notes: human IgG1

The target of one test is SARS-CoV-2 S on pseudovirions (Wuhan Hu-1 / IL1/2020, last 18 amino acids removed) (SARS-CoV-2, UniProt P0DTC2 14-1273). As to the kind of experiment: cell-based or functional assay.
As for B1, the “Mean IC50, pSV neutralization” value worked out at 0.07 µg/ml and the “Mean IC80, pSV neutralization” value was at least 25 µg/ml.
The matching figures for B2: at least 25 µg/ml and at least 25 µg/ml.
For B3, the “Mean IC50, pSV neutralization” value was at least 25 µg/ml and the “Mean IC80, pSV neutralization” value is at least 25 µg/ml.
As for B4, the “Mean IC50, pSV neutralization” value was found to be 0.02 µg/ml and the “Mean IC80, pSV neutralization” value is 0.31 µg/ml.
The matching figures for B5: at least 25 µg/ml and at least 25 µg/ml.
The matching figures for B6: 3.99 µg/ml and at least 25 µg/ml.
On to B7, for which the “Mean IC50, pSV neutralization” value stood at 0.04 µg/ml and the “Mean IC80, pSV neutralization” value is at least 25 µg/ml.
For the molecule B8, the “Mean IC50, pSV neutralization” value is at least 25 µg/ml and the “Mean IC80, pSV neutralization” value was at least 25 µg/ml.
With B9, the “Mean IC50, pSV neutralization” value was 7.46 µg/ml and the “Mean IC80, pSV neutralization” value is at least 25 µg/ml.
The matching figures for B10: 0.502 µg/ml and 2.04 µg/ml.
Regarding B11, the “Mean IC50, pSV neutralization” value is at least 25 µg/ml and the “Mean IC80, pSV neutralization” value was at least 25 µg/ml.
On to B12, for which the “Mean IC50, pSV neutralization” value was 0.09 µg/ml and the “Mean IC80, pSV neutralization” value stood at 0.3 µg/ml.
The matching figures for B13: at least 25 µg/ml and at least 25 µg/ml.

The next test addresses T1, SARS-CoV-2 NTD (1-290) (SARS-CoV-2, UniProt P0DTC2 14-290).
T1 construct: range 1-290
The test is described as follows: BLI, 1:1 model.
Molecule B1 came in with a Kd of under 1 pM.
The molecule B4 displayed a Kd of under 1 pM.
Same read-out and setting: next, B5: 40.7 pM.
The same measure, in the same setting: as for B7, the figure is under 1 pM.

Another test concerns the target T2, MERS-CoV spike antigens (bead panel) (MERS-CoV, UniProt K9N5Q8 18-1296).
T2 sequence: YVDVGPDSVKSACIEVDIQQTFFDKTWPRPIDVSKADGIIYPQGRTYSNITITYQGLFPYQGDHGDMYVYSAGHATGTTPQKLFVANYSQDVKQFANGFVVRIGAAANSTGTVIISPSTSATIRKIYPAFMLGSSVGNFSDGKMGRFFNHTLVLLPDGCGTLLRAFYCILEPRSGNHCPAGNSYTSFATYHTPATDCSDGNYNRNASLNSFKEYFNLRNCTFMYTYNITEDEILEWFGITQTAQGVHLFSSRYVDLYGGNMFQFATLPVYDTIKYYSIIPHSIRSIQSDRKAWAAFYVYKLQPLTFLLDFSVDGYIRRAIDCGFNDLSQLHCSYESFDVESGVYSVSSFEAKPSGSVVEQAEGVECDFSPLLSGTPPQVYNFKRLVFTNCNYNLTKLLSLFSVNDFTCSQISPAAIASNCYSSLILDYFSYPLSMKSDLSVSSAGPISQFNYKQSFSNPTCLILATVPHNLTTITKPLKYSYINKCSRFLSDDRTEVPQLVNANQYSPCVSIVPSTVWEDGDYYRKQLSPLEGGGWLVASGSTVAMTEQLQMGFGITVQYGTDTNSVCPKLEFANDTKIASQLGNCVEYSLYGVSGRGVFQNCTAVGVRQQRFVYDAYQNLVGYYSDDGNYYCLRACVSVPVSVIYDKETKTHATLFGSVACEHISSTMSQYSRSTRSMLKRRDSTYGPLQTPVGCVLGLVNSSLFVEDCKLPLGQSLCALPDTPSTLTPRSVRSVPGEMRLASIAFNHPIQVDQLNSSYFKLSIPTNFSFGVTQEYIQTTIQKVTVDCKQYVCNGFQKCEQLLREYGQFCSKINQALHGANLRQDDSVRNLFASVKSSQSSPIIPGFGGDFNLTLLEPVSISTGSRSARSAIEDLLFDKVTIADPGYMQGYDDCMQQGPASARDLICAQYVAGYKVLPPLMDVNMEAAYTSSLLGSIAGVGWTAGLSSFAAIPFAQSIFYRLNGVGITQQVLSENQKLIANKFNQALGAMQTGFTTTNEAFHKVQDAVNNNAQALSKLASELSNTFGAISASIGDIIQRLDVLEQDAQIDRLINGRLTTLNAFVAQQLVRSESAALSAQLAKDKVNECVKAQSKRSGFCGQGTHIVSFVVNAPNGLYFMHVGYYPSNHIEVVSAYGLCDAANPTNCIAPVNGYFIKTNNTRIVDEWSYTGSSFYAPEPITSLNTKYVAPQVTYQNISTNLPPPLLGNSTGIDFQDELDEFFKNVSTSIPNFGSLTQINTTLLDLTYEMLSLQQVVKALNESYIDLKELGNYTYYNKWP
The test is described as follows: multiplex bead assay.
Regarding B2, the binding result is listed as “no binding”.
As to B3, the binding result was “no binding”.
The same measure, in the same setting: as for B6, the entry is “no binding”; as for B8, “no binding”; as for B9, “no binding”.
On the same count and under the same terms, next, B10: “no binding”; B11: “no binding”; B12: “no binding”.
The same measure, in the same setting: as for B13, the entry is “no binding”.

The next test has as its target SARS-CoV-1 spike antigens (bead panel) (SARS-CoV-1, UniProt P59594 14-1195). The test is described as follows: multiplex bead assay.
Turning to B1, the binding result is listed as “no binding”.
Turning to B2, the binding result is listed as “no binding”.
Take B3: the binding result is on record as “no binding”.
As for B4, the binding result is recorded as “no binding”.
As for B5, the binding result is recorded as “no binding”.
On to B6, for which the binding result is given as “no binding”.
On the same count and under the same terms, next, B7: “no binding”.
For the molecule B8, the binding result was “no binding”.
B9: the binding result is “no binding”.
As for B10, the binding result is given as “no binding”.
Still for that read-out and setting: as for B11, the entry is “no binding”.
B12: the binding result is reported as “no binding”.
Regarding B13, the binding result is “no binding”.
